Measured values taken from patent US20150274820A1 (ESBATECH AN ALCON BIOMEDICAL RESEARCH UNIT, published 2015).
“And” between values parts separate entries of the source, which are not always exact repeats. Identical values can stand only once. Blank lines part the entries; values can stand above or below the binder they belong to.

Experiments:
[1] = molecular target: recombinant murine VEGF164 (mouse) (UniProt Q00731); experiment: Biacore SPR, pH 5 (text; Table 8b prints 5.67E-10)
[2] = molecular target: T1, recombinant human VEGF165 (human, UniProt P15692 27-191); experiment: Biacore SPR, VEGF immobilized, pH 5
T1 construct: mature; Isoform VEGF165 of the entry; also called hVEGF165; hVEGF
Target sequence in this assay (P15692 other isoform, or with tags, fused parts or gaps): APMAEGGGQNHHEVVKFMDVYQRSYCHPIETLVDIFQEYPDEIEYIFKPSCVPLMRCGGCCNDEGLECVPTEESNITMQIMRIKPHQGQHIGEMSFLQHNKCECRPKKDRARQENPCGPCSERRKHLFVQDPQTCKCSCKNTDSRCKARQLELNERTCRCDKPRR

[3] = molecular target: T1, recombinant human VEGF165; experiment: cell-based or functional assay
[4] = molecular target: recombinant murine VEGF164 (mouse) (UniProt Q00731); experiment: Biacore SPR; ratio to hVEGF165
[5] = molecular target: recombinant rat VEGF164 (rat) (UniProt P16612); experiment: Biacore SPR; ratio to hVEGF165
[6] = molecular target: T1, recombinant human VEGF165; experiment: cell-based or functional assay; remark: listed apart in the source
[7] = molecular target: recombinant murine VEGF164 (mouse) (UniProt Q00731); experiment: Biacore SPR, VEGF immobilized, pH 5
[8] = molecular target: recombinant rat VEGF164 (rat) (UniProt P16612); experiment: Biacore SPR, VEGF immobilized, pH 5
[9] = molecular target: recombinant murine VEGF164 (mouse) (UniProt Q00731); experiment: cell-based or functional assay
[10] = molecular target: recombinant rat VEGF164 (rat) (UniProt P16612); experiment: cell-based or functional assay
[11] = molecular target: recombinant murine VEGF164 (mouse) (UniProt Q00731); experiment: Biacore SPR, pH 7.4 (data not shown)
[12] = molecular target: recombinant rat VEGF164 (rat) (UniProt P16612); experiment: Biacore SPR, pH 7.4 (data not shown)
[13] = molecular target: T1, recombinant human VEGF165; experiment: VEGFR2 competition ELISA: hVEGF165 coated on the plate, scFv pre-incubated with human VEGFR2/Fc chimera, bound VEGFR2/Fc detected with anti-human Fc-HRP, OD 450 nm; half-maximal inhibition
Protocol: After 30-60 min of incubation at room temperature, the mixtures were transferred to the human VEGF₁₆₅ immobilized plate and incubated for 90 min. […] Optical density at 450 nm (OD 450 nm) was measured using a Sunrise microplate reader (Tecan).

[14] = molecular target: T2, recombinant human VEGF121 (human, UniProt P15692 27-147); experiment: Biacore SPR (FIG. 3b legend; differs from Table 9)
T2 construct: mature; Isoform VEGF121 of the entry; also called hVEGF121
T2 sequence (looked up): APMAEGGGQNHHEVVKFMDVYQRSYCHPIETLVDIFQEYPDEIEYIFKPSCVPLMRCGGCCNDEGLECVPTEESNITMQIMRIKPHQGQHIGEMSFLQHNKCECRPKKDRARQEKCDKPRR
Protocol: In this example, the Biacore-binding ability of scFvs was tested and the binding affinity was measured using the exemplary surface plasmon resonance method with BIAcore™-T100. The VEGF proteins, tested for binding by these scFv candidates, in this example and later examples include purified Escherichia coli-expressed recombinant human VEGF₁₆₅ (PeproTech EC Ltd.), recombinant human VEGF₁₂₁ (PeproTech EC Ltd.), recombinant human VEGF₁₁₀ (ESBATech AG), recombinant murine VEGF₁₆₄ (PeproTech EC Ltd.), recombinant rat VEGF₁₆₄ (Biovision), recombinant rabbit VEGF₁₁₀ (ESBATech AG), and recombinant human PLGF (PeproTech EC Ltd.). For the surface plasmon resonance experiment, carboxymethylated dextran biosensor chips (CM4, GE Healthcare) were activated with N-ethyl-N′-(3-dimethylaminopropyl) carbodiimide hydrochloride and N-hydroxysuccinimide according to the supplier's instructions. Each of the 6 different VEGF forms, as exemplified above, was coupled to 1 of the 4 different flow cells on a CM4 sensor chip using a standard amine-coupling procedure. […] The apparent dissociation rate constant (kd), the apparent association rate constant (kₐ) and the apparent dissociation equilibrium constant (KD) were calculated using one-to-one Langmuir binding model with BIAcore T100 evaluation Software version 1.1.

[15] = molecular target: T1, recombinant human VEGF165; experiment: cell-based or functional assay; remark: listed apart in the source
Target sequence in this assay (P15692 other isoform, or with tags, fused parts or gaps): as the sequence (P15692 other isoform, or with tags, fused parts or gaps) above

recombinant human PLGF = molecular target: T3, recombinant human PLGF (human, UniProt P49763-2 19-149, limits assumed); experiment: Biacore SPR, PlGF immobilized, pH 5
T3 construct: Negative control; also called PIGF
T3 sequence (looked up): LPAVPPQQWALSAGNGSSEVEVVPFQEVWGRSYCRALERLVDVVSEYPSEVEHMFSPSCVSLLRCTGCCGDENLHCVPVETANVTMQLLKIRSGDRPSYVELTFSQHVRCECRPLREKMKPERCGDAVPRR

[16] = molecular target: T2, recombinant human VEGF121; experiment: Biacore SPR, VEGF immobilized, pH 5
[17] = molecular target: T4, recombinant human VEGF110 (human, UniProt P15692-4 27-136, limits assumed); experiment: Biacore SPR, VEGF immobilized, pH 5
T4 construct: Made in house; also called hVEGF110
T4 sequence (looked up): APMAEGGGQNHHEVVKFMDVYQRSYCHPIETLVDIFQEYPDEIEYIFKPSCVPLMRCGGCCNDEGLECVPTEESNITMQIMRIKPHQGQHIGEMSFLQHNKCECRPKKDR

[18] = molecular target: T1, recombinant human VEGF165; experiment: Biacore SPR, VEGF immobilized, pH 5; remark: listed apart in the source
Target sequence in this assay (P15692 other isoform, or with tags, fused parts or gaps): as the sequence (P15692 other isoform, or with tags, fused parts or gaps) above

[19] = molecular target: T1, recombinant human VEGF165; experiment: Biacore SPR, VEGF immobilized, pH 5; remark: listed apart in the source
Target sequence in this assay (P15692 other isoform, or with tags, fused parts or gaps): as the sequence (P15692 other isoform, or with tags, fused parts or gaps) above

[20] = molecular target: T1, recombinant human VEGF165; experiment: Biacore SPR, VEGF immobilized, pH 7.4
Target sequence in this assay (P15692 other isoform, or with tags, fused parts or gaps): as the sequence (P15692 other isoform, or with tags, fused parts or gaps) above

[21] = molecular target: T1, recombinant human VEGF165; experiment: Biacore SPR (FIG. 4c legend; differs from Table 10)
Protocol: For the surface plasmon resonance experiment, carboxymethylated dextran biosensor chips (CM4, GE Healthcare) were activated with N-ethyl-N′-(3-dimethylaminopropyl) carbodiimide hydrochloride and N-hydroxysuccinimide according to the supplier's instructions. Each of the 6 different VEGF forms, as exemplified above, was coupled to 1 of the 4 different flow cells on a CM4 sensor chip using a standard amine-coupling procedure. […] The 4th flow cell of each chip was treated similarly except no proteins were immobilized prior to blocking, and the flow cell was used as in-line reference. […] Dissociation of the anti-VEGF scFv from the VEGF on the CM4 chip was allowed to proceed for 10 min at 25° C. Sensorgrams were generated for each anti-VEGF scFv sample after in-line reference cell correction followed by buffer sample subtraction. The apparent dissociation rate constant (kd), the apparent association rate constant (kₐ) and the apparent dissociation equilibrium constant (KD) were calculated using one-to-one Langmuir binding model with BIAcore T100 evaluation Software version 1.1.
The present invention also discloses derivatives originating from the lead anti-VEGF scFv candidates, which are mentioned above.

Kd [1]: 0.576 nM
Kd [2]: 0.625 nM
koff [2]: 0.000504 s⁻¹
kon [2]: 806000 M⁻¹ s⁻¹
EC50, HUVEC proliferation induced by hVEGF165 [3]: 0.0552 nM
potency in HUVEC assay relative to Lucentis [3]: ~1.6 fold
relative value KdhVEGF165/KdmVEGF164 [4]: 1.1
relative value kdhVEGF165/kdmVEGF164 [4]: 0.8
relative value KdhVEGF165/KdmVEGF164 (rat block) [5]: 0.8
relative value kdhVEGF165/kdmVEGF164 (rat block) [5]: 0.8
Rel. activity in HUVEC assay (EC50Luc[nM]/EC50test[nM]) hVEGF [6]: 1.6 and 1.4
Kd [7]: 0.567 nM
koff [7]: 0.000657 s⁻¹
kon [7]: 1.14e+06 M⁻¹ s⁻¹
Kd [8]: 0.748 nM
koff [8]: 0.000641 s⁻¹
kon [8]: 858000 M⁻¹ s⁻¹
EC50, HUVEC proliferation induced by mouse VEGF164 [9]: 0.0631 nM
EC50, HUVEC proliferation induced by rat VEGF164 [10]: 0.0697 nM
Kd [11]: 0.0273 nM
Kd [12]: 0.0219 nM
B1: 578minmax (scFv)
scFv: EIVMTQSPSTLSASVGDRVIITCQASEIIHSWLAWYQQKPGKAPKLLIYLASTLASGVPSRFSGSGSGAEFTLTISSLQPDDFATYYCQNVYLASTNGANFGQGTKLTVLGGGGGSGGGGSGGGGSGGGGSEVQLVESGGGLVQPGGSLRLSCTASGFSLTDYYYMTWVRQAPGKGLEWVGFIDPDDDPYYATWAKGRFTISRDTSKNTVYLQMNSLRAEDTAVYYCAGGDHNSGWGLDIWGQGTLVTVSS
notes: also called ESBA903; 903

EC50 (read off the curve) [13]: ~0.4 nM
koff [2]: 0.000307 s⁻¹
kon [2]: 700000 M⁻¹ s⁻¹
EC50 in HUVEC assay (FIG. 8d) [3]: 0.103 nM
Kd [14]: 0.095 nM
Rel. activity in HUVEC assay (EC50Luc[nM]/EC50test[nM]) [15]: 1.48
binding result (recombinant human PLGF): no binding
Rel. activity in HUVEC assay (EC50Luc[nM]/EC50test[nM]) hVEGF [6]: 0.94 and 1 and 1.2
koff [16]: 0.000558 s⁻¹
kon [16]: 587000 M⁻¹ s⁻¹
koff [17]: 0.000722 s⁻¹
kon [17]: 523000 M⁻¹ s⁻¹
koff [18]: 0.000307 s⁻¹
kon [18]: 700000 M⁻¹ s⁻¹
koff [19]: 0.000307 s⁻¹
kon [19]: 700000 M⁻¹ s⁻¹
koff [7]: 0.00044 s⁻¹
kon [7]: 1.03e+06 M⁻¹ s⁻¹
koff [8]: 0.000528 s⁻¹
kon [8]: 883000 M⁻¹ s⁻¹
koff [20]: 3.76e-05 s⁻¹
kon [20]: 1.58e+06 M⁻¹ s⁻¹
B2: 578-max (scFv)
scFv: EIVMTQSPSTLSASVGDRVIITCQASEIIHSWLAWYQQKPGKAPKLLIYLASTLASGVPSRFSGSGSGTQFTLTISSLQPDDFATYYCQNVYLASTNGANFGQGTKLTVLGGGGGSGGGGSGGGGSGGGGSEVQLVESGGGLVQPGGSLRLSCTASGFSLTDYYYMTWVRQAPGKGLEWVGFIDPDDDPYYATWAKGRFTISRDTSKNTVYLQMNSLRAEDTAVYYCAGGDHNSGWGLDIWGQGTLVTVSS
notes: also called EP578max; #821

Kd [2]: 0.2 nM
koff [2]: 0.000169 s⁻¹
kon [2]: 834000 M⁻¹ s⁻¹
kon [21]: 845000 M⁻¹ s⁻¹
B3: 578 wildtype C-His (scFv, not shown: small tags and cut ends)
scFv: DVVMTQTPSSVSAAVGDTVTINCQASEIIHSWLAWYQQKPGQPPKLLIYLASTLASGVPSRFKGSGSGTQFTLTISDLECADAAIYYCQNVYLASTNGANFGGGTEVVVKGGGGSGGGGSGGGGSGGGGSQSVEESGGRLVTPGTPLTLTCTASGFSLTDYYYMTWVRLAPGKGLEYIGFIDPDDDPYYATWAKGRFTISRTSTTVNLKMTSPTTEDTATYFCAGGDHNSGWGLDIWGPGTLVTVSL
notes: Rabbit wild type single chain
